Patent US12065466B2, “Methods and compositions for protein sequencing” (Quantum-Si Incorporated, priority 2020, dated 2024)
Read-outs that look alike come from different tables or passages of the source.

How the values were obtained:
[1] = target: N-terminal phenylalanine peptide (alanine at the penultimate position); experiment: Fluorescence polarization binding affinity of tandem recognizers, FA peptide
Procedure: The multivalent binder PS651 was designed as a tandem fusion molecule expressed from a single coding sequence containing segments encoding three copies of atClpS2-V1 (Tris-atClpS2-V1) joined end-to-end by segments encoding a flexible peptide linker (Linker 2). Fluorescence polarization studies were performed with PS651, the Bis-atClpS2-V1 binders (PS609, PS610, PS611), and the monomeric binder atClpS2-V1, to determine the binding affinity of each for a peptide having an N-terminal phenylalanine residue with an alanine residue at the penultimate position. The KD values obtained from these studies are reported below in Table 9.

[2] = test system: dye-labeled RL peptide; experiment: Peptide-on-chip recognition assay for N-terminal arginine peptide; type: binding
Procedure: Peptide-on-chip recognition assays for N-terminal arginine peptide were performed with PS621 and PS528. Both PS528 and PS621 recognized N-terminal R, and binding to dye-labeled RL peptide at the single-molecule level was confirmed in these recognition assays, with average pulse width of approximately 60 ms.

[3] = test system: immobilized peptides containing N-terminal R, K or H; experiment: Biolayer interferometry of UBR-box domain homologs; type: binding; conditions: for binding range for RX dipeptides: 14 peptides RXGGGDDDFFK (SEQ ID NO: 241)
Procedure: The amino acid binding properties of UBR-box domain homologs were evaluated by biolayer interferometry. Peptides containing an N-terminal arginine (R), followed by different amino acids in the penultimate position, were immobilized on a biolayer interferometry sensor surface, allowed to bind to UBR-box protein, and incubated in buffer to allow the UBR-box molecules to dissociate. […] FIG. 32C is a heatmap showing results measured for 24 UBR-box homologs against 14 polypeptides containing N-terminal R followed by different amino acids in the penultimate position.
UBR proteins bind to the basic N-terminal residues R, K, and H as part of the conserved N-end rule pathway. To identify high-affinity UBR proteins with properties favorable for use in sequencing, a diverse panel of uncharacterized UBR-box domain homologs from 44 species (PS501-PS544) was designed. UBR-box domain homologs were expressed, purified, and evaluated for binding to N-terminal amino acids by biolayer interferometry. Measurements were carried out at 30° C. for each protein for R, K and H binding. The amino-acid binding profile of each new homolog was first evaluated by biolayer interferometry using a single-point screening assay. All peptides in this screen contained a penultimate alanine (A) and consisted of the sequence XAKLDEESILKQK (SEQ ID NO: 238), where X is R, K, or H.
To evaluate the effect of penultimate amino acids on arginine binding, UBR box-domain homologs were evaluated for binding to 14 different peptides with N-terminal RX (peptide sequence: RXGGGDDDFFK (SEQ ID NO: 241)). The selected RX dipeptides are the 14 most frequently found in the human proteome.

[4] = target: N-terminal arginine peptide (alanine at the penultimate position); experiment: Fluorescence polarization binding affinity of tandem recognizers, RA peptide
Procedure: Three different constructs were designed and expressed for each multivalent UBR-box binder: PS690, PS691, and PS692 (Bis-PS621 binders having Linker 1, Linker 2, and Linker 3, respectively); and PS693, PS694, and PS695 (Bis-PS528 binders having Linker 1, Linker 2, and Linker 3, respectively). Fluorescence polarization studies were performed to evaluate the binding affinity of each of the multivalent UBR-box binders, and the corresponding monomeric binders, for a peptide having an N-terminal arginine residue with an alanine residue at the penultimate position. The KD values obtained from these studies are reported below in Table 11.

[5] = test system: labeled peptide (XAKLDEESILKQK-FITC (SEQ ID NO: 238)); RA, KA, HA; experiment: Single point fluorescence polarization assay of UBR-streptavidin complex; type: binding
Procedure: Single point fluorescence polarization assays were then performed for selected candidates. These assays measured the interaction of labeled peptide (XAKLDEESILKQK-FITC (SEQ ID NO: 238)) with UBR-streptavidin complex in a format in which these molecules are free in solution. Measurements of polarization response (millipolarization, mP) and total intensity for RA, KA, and HA peptides were performed.

[6] = test system: RA and KA peptides; experiment: Fluorescence polarization binding titration of UBR-box domain candidates (KD); conditions: RA peptide
Procedure: The binding affinity of selected UBR-box domain candidates was then evaluated by measuring KD (dissociation constant) values for N-terminal R and K peptides. Assays were performed for RA and KA peptides at increasing concentration of UBR protein (FIG. 32G, top plots). KD values were determined from the binding titration curves.

[7] = test system: amino acid at a terminal position of a polypeptide; conditions: Table 2; amino acid identity at a terminal position (phosphotyrosine also internal); inferred from literature and/or demonstrated by the inventors; cited from earlier work
[8] = test system: peptides with different N-terminal amino acids, penultimate alanine; experiment: Biolayer interferometry of multivalent amino acid binders; type: binding
Procedure: The amino acid binding profile of each Bis-atClpS2-V1 binder (PS609, PS610, and PS611) was evaluated by biolayer interferometry as described above. The monovalent atClpS2-V1 was run as a control. Measurements with each binder were carried out for the amino acids F, Y, and W, along with I, L, M, and V as negative controls. All peptides contained a penultimate alanine (A). Response curves for the tandem binders PS609, PS610, and PS611 are shown in FIGS. 35B, 35C, and 35D, respectively.
The multivalent binder PS612 is a polypeptide that contains tandem copies of two different ClpS protein monomers (atClpS2-V1 and PS372). The amino acid binding profile of PS612 was evaluated by biolayer interferometry as described above. The monovalent binders atClpS2-V1 and PS372 were separately run as controls.
The multivalent binder PS614 is a polypeptide that contains two copies of the ClpS binder PS372 oriented in tandem. The amino acid binding profile of PS614 was evaluated by biolayer interferometry as described above.
The multivalent binders PS637, PS638, and PS639 are polypeptides that each contain two copies of the ClpS binder PS557 oriented in tandem and separated by Linker 1, Linker 2, and Linker 3, respectively. The amino acid binding profiles of each binder was evaluated by biolayer interferometry as described above.

[9] = test system: amino acid at a terminal position of a polypeptide; experiment: Amino acid binding preference of recognition proteins (Tables 1 and 2); conditions: Table 1, ClpS proteins; amino acid identity at a terminal position of a polypeptide; inferred from literature and/or demonstrated by the inventors
Text: It should be appreciated that these sequences and other examples described herein are meant to be non-limiting, and recognition molecules in accordance with the application can include any homologs, variants thereof, or fragments thereof minimally containing domains or subdomains responsible for peptide recognition.

[10] = test system: labeled N-terminal LA peptide; experiment: Stopped-flow dissociation rate (koff), PS557 derivatives; type: binding; conditions: excess unlabeled trap peptide
Text: To measure the dissociation rate (koff) by stopped-flow, complexes of binder bound to labeled peptide substrate at an optimal concentration were rapidly mixed with excess unlabeled trap peptide. […] The averaged raw traces were fitted with an exponential equation to determine the koff (FIG. 37B, bottom panel).

[11] = test system: FITC labeled N-terminal LA peptide; experiment: Stopped-flow association rate constant (kon), PS557 derivatives; type: binding
Procedure: Stopped-flow assays were performed to measure the association (kon) and dissociation (koff) rates for PS557, atClpS2-V1, and fusion proteins derived by C-terminal addition of protein shields. To measure the on-rate constant by stopped-flow, the binder was rapidly mixed with FITC labeled peptide, and the reaction was followed in real time. N-terminal LA peptide was used for PS557 derivatives and N-terminal FA peptide was used for atClpS2-V1 derivatives. In this assay, the fluorescence signal decreased due to quenching upon protein binding. The averaged traces obtained at multiple concentrations of binder were fitted with a decay equation to derive association rates (FIG. 37A, middle panel). A linear slope from the plot of association rates against different binder concentrations gave the kon rate constant (FIG. 37A, bottom panel).

Molecule | average pulse width [2] | binding range for RX dipeptides [3] | binding to RA/KA/HA peptides (single-point screening) ([3]; 30° C., XAKLDEESILKQK) | polarization response with RA peptide [5] | Binding Pref. [7] | LA koff [10] [s⁻¹] | LA kon [11] [M⁻¹ s⁻¹] | also measured
PS609: single polypeptide with two tandem copies of atClpS2-V1 joined by Linker 1 (SEQ ID NO: 243) (protein) MSDSPVDLKPKPKVKPKLERPKLYKVMLLNDDYTPMSFVTVVLKAVFRMSEDTGRRVMMTAHRFGSAVVVVCERDIAETKAKEATDLGKEAGFPLMFTTEPEEGGGSGGGSGGGSGMSDSPVDLKPKPKVKPKLERPKLYKVMLLNDDYTPMSFVTVVLKAVFRMSEDTGRRVMMTAHRFGSAVVVVCERDIAETKAKEATDLGKEAGFPLMFTTEPEEGHHHHHHHHHHGGGSGGGSGGGSGLNDFFEAQKIEWHEGGGSGGGSGGGSGLNDFFEAQKIEWHE |  |  |  |  |  |  |  | Kd [1]: 221 nM
PS528: UBR-box domain homolog, SEQ ID NO: 156 (protein, listed as Kluyveromyces lactis) MHSKFNHAGRICGAKFRVGEPIYRCKECSFDDTCVLCVNCFNPKDHVGHHVYTSICTEFNNGICDCGDKEAWNHELNCKGAED | approximately 60 ms | extensive binding range for RX dipeptides | favorable binding trajectories to RA and KA peptides with notably high response for RA peptide | bind to RA peptides with strong responses | K, R, H |  |  | binding affinity to N-terminal R with different penultimate amino acids ([3]; 14 polypeptides containing N-terminal R): high binding affinity to R in the presence of a wide range of penultimate amino acids; dissociation trajectory and HA peptide binding ([3]; 30° C., XAKLDEESILKQK): slower dissociation trajectory and displayed binding to HA peptide; Kd [4]: 403 nM; Kd [6]: 460 nM
PS621: UBR-box domain homolog, SEQ ID NO: 181 (protein, listed as Kluyveromyces marxianus) MHSKFSHAGRICGAKFKVGEPIYRCKECSFDDTCVLCVNCFNPKDHTGHHVYTTICTEFNNGICDCGDKEAWNHTLFCKAEEG | approximately 60 ms | extensive binding range for RX dipeptides | favorable binding characteristics with results that were similar to PS528 | bind to RA peptides with strong responses | K, R, H |  |  | 
PS557: PS372-homologous ClpS protein, SEQ ID NO: 71 (protein, listed as Planctomycetes bacterium) MPTAASATESAIEDTPAPARPEVDGRTKPKRQPRYHVVLWNDDDHTYQYVVVMLQSLFGHPPERGYRLAKEVDTQGRVIVLTTTREHAELKRDQIHAFGYDRLLARSKGSMKASIEAEE |  |  |  |  |  | 0.22 | 1.8e+06 | N-terminal amino acids bound (biolayer interferometry) [8]: binds N-terminal I, L, and V; Binding Pref. [9]: I, L, V
PS698 (protein) MPTAASATESAIEDTPAPARPEVDGRTKPKRQPRYHVVLWNDDDHTYQYVVVMLQSLFGHPPERGYRLAKEVDTQGRVIVLTTTREHAELKRDQIHAFGYDRLLARSKGSMKASIEAEEHHHHHHHHHHGGGSGGGSGGGSGLNDFFEAQKIEWHEGGGSGGGSGGGSGLNDFFEAQKIEWHEGSAGSAAGSGEFMDKDCEMKRTTLDSPLGKLELSGCEQGLHEIKLLGKGTSAADAVEVPAPAAVLGGPEPLMQATAWLNAYFHQPEAIEEFPVPALHHPVFQQESFTRQVLWKLLKVVKFGEVISYQQLAALAGNPAATAAVKTALSGNPVPILIPCHRVVSSSGAVGGYEGGLAVKEWLLAHEGHRLGKPGLG |  |  |  |  |  | 0.19 | 4e+06 | 
